Test results reported in patent publication EP4613767A1 (Shanghai Qilu Pharmaceutical Research and Development …, dated 2025).

Key:
[1] = molecular target: T1, human CD3 E&D protein (Acro, Cat. No.: CDD-H52W1) (human, UniProt P07766 23-126; P04234 22-105); test: SPR Biacore 8K, CD3 E&D immobilised on CM5 chip, antibody as analyte, 1:1 fit
T1 construct: Bought recombinant protein

[2] = molecular target: monkey CD3 E&D protein (Acro, Cat. No.: CDD-C52W4) (monkey, UniProt Q95LI5 22-117; Q95LI8 22-105); test: as above
Sequence of monkey CD3 E&D protein (Acro, Cat. No.: CDD-C52W4) (Q95LI5 22-117, chain 1 of 2): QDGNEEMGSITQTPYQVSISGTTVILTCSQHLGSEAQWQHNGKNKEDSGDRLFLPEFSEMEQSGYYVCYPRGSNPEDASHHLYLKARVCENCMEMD
Sequence of monkey CD3 E&D protein (Acro, Cat. No.: CDD-C52W4) (Q95LI8 22-105, chain 2 of 2): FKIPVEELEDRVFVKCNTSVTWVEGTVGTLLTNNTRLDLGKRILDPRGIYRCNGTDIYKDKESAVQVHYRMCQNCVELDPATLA

[3] = molecular target: T2, monkey GPC3 protein (Acro, Cat. No.: GP3-C522a) (monkey); test: SPR Biacore 8K, anti-human Fc on CM5 chip, GPC3 protein as analyte, 1:1 fit
T2 construct: Bought recombinant protein

[4] = molecular target: T3, human CD3 naturally expressed on Jurkat cells (human, UniProt P07766 23-207; P04234 22-171; P09693 23-182); test: FACS on Jurkat cells naturally expressing human CD3
T3 construct: whole, on cells; also called hCD3
T3 sequence (P07766 23-207, chain 1 of 3): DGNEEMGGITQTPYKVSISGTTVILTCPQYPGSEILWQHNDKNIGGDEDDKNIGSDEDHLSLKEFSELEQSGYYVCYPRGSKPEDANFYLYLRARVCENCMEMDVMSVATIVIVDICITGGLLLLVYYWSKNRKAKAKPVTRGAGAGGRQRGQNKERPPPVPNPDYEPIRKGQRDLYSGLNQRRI
T3 sequence (P04234 22-171, chain 2 of 3): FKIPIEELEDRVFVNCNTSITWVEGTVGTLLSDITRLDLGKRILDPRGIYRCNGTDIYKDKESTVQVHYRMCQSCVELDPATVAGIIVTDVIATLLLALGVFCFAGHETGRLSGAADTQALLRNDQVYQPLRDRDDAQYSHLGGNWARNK
T3 sequence (P09693 23-182, chain 3 of 3): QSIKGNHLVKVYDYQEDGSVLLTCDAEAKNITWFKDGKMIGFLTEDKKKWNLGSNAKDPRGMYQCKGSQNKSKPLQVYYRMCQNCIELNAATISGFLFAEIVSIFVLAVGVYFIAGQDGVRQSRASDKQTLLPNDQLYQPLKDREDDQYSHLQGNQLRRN

T1 sequence (P07766 23-126, chain 1 of 2): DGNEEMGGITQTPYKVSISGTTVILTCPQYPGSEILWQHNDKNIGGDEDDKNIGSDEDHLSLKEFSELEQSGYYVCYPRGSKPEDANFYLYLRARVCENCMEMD
T1 sequence (P04234 22-105, chain 2 of 2): as the sequence (Q95LI8 22-105, chain 2 of 2) above, with V5I, K15N, V20I, T32S, N33D, N34I, A64T, N74S, L83V counted along it

Binder	Kd [1]	koff [1]	kon [1]	Kd [2]	koff [2]	kon [2]	Kd [3]	koff [3]	kon [3]	EC50 [4]
bispecific antigen-binding molecule G100 (bispecific antibody, Heterodimer of two chains (Format 1): one anti-GPC3 VHH on Knob-Fc, one anti-CD3 scFv on Hole-Fc; also called anti-CD3-GPC3 bispecific antibody; Format 1) chain 1: not shown chain 2: EVKLVESGGGLVQPGGSLKLSCAASGFTFNTYAMNWVRQAPGKGLEWVARIRSKYNNYATYYADSVKDRFTISRDDAKNTLYLQMNNLRTEDTAVYYCVRHGNFGNSYVSWFAYWGQGTLVTVSSGGGGSGGGGSGGGGSAQAVVTQEPSLTVSPGGTVTLTCRSSTGAVTTSNYANWVQQKPGQAPRGLIGGTNKRAPGTPARFSGSLLGGKAALTLSGAQPEDEAEYYCALWYSNLWVFGGGTKLTVLEPKSSDKTHTCPPCPAPEAAGGPSVFLFPPKPKDTLMISRTPEVTCVVVDVSHEDPEVKFNWYVDGVEVHNAKTKPREEQYNSTYRVVSVLTVLHQDWLNGKEYKCKVSNKALPAPIEKTISKAKGQPREPQVCTLPPSRDELTKNQVSLSCAVKGFYPSDIAVEWESNGQPENNYKTTPPVLDSDGSFFLVSKLTVDKSRWQQGNVFSCSVMHEALHNRYTQKSLSLSPGK	3.49 nM	0.00286 s⁻¹	820000 M⁻¹ s⁻¹	5.66 nM	0.00427 s⁻¹	755000 M⁻¹ s⁻¹	9.15 nM	0.00276 s⁻¹	302000 M⁻¹ s⁻¹	23.9 nM
bispecific antigen-binding molecule G156 (bispecific antibody, Heterodimer of two chains (Format 2): two anti-GPC3 VHH on the Knob-Fc chain, one anti-CD3 scFv on Hole-Fc; also called anti-CD3-GPC3 bispecific antibody; Format 2) chain 1: not shown chain 2: EVKLVESGGGLVQPGGSLKLSCAASGFTFNTYAMNWVRQAPGKGLEWVARIRSKYNNYATYYADSVKDRFTISRDDAKNTLYLQMNNLRTEDTAVYYCVRHGNFGNSYVSWFAYWGQGTLVTVSSGGGGSGGGGSGGGGSAQAVVTQEPSLTVSPGGTVTLTCRSSTGAVTTSNYANWVQQKPGQAPRGLIGGTNKRAPGTPARFSGSLLGGKAALTLSGAQPEDEAEYYCALWYSNLWVFGGGTKLTVLEPKSSDKTHTCPPCPAPEAAGGPSVFLFPPKPKDTLMISRTPEVTCVVVDVSHEDPEVKFNWYVDGVEVHNAKTKPREEQYNSTYRVVSVLTVLHQDWLNGKEYKCKVSNKALPAPIEKTISKAKGQPREPQVCTLPPSRDELTKNQVSLSCAVKGFYPSDIAVEWESNGQPENNYKTTPPVLDSDGSFFLVSKLTVDKSRWQQGNVFSCSVMHEALHNRYTQKSLSLSPGK	1.3 nM	0.00193 s⁻¹	1.48e+06 M⁻¹ s⁻¹	2.79 nM	0.00367 s⁻¹	1.32e+06 M⁻¹ s⁻¹	9.62 nM	0.00275 s⁻¹	285000 M⁻¹ s⁻¹	27.4 nM
